Laboratory results published in publication PMC3509593, “Role of Key Residues at the Flavin Mononucleotide (FMN):Adenylyltransferase Catalytic Site of the Bifunctional Riboflavin Kinase/Flavin Adenine Dinucleotide (FAD) Synthetase from Corynebacterium ammoniagenes” (International Journal of Molecular Sciences, 2012).
Read-outs that look alike come from different tables or passages of the source.

Assays:
CaFADS [1] = details: 25 °C; for Kd: 20 mM PIPES pH 7.0
Method: Measurements were carried out using a high precision VP-ITC (MicroCal LLC, Northampton, MA, USA) following the procedure described previously. Typically, 200 μM FAD or FMN and 300 μM ATP solutions were used to titrate ~20 μM CaFADS. Ligand and CaFADS were dissolved in 20 mM PIPES, pH 7.0, at the indicated MgCl2 concentration. Control titrations were performed by injecting ligand into buffer solution. The association constant, the enthalpy change (ΔH) and the stoichiometry, or their average values, were obtained through non-linear regression of the experimental data to a home derived model for one or two independent binding sites implemented in Origin 7.0 (OriginLab Corporation, Northampton, MA, 2002) (see Supplementary Material). The Kd, the free energy change (ΔG), and the entropy change (ΔS) were obtained from basic thermodynamic relationships. Experiments were performed in duplicate or triplicate.
The association constant (Ka), the enthalpy change (ΔH) and the stoichiometry (N), or their average values, were obtained through non-linear regression of the experimental data to a model for one or two independent binding sites implemented in Origin 7.0 (OriginLab Corporation, Northampton, MA, USA, 2002).
The nominal protein concentration was normalised by a factor n (nP0, instead of P0) accounting for either the stoichiometry or the fraction of active (binding-competent) protein.

[2] = Thermal denaturation by differential scanning calorimetry (DSC); assay type: physicochemical; details: 20 mM PIPES, 10 mM MgCl2, pH 7.0
Method: Thermal stability was determined with a VP-DSC microcalorimeter (MicroCal LLC, Northampton, MA, USA). Protein samples and reference solutions were degassed and carefully loaded into the cells to avoid bubble formation. The baseline of the instrument was routinely recorded before the experiments with both cells filled with buffer. […] Errors in the Tm,app data are within ±0.3–0.5 °C.

CaFADS [3] = details: FADpp activity; 37 °C, 20 mM PIPES, 10 mM MgCl2, pH 7.0
Method: The CaFADS FMNAT and FADpp activities were fluorimetrically measured using a continuous assay. […] Measurements were performed in a Cary Eclipse spectrophotofluorimeter with excitation and emission wavelengths at 420 nm and 530 nm, respectively. FAD and FMN fluorescence were individually calibrated using standard solutions. The rate of FAD formation was calculated from the rate of fluorescence decrease (ΔF/Δt), measured as the tangent to the initial part of the experimental curve by applying the equation:
where ΔF is the decrease in the value of the fluorescence expressed in arbitrary units, Δt is the measurement of reaction time expressed in per minute, and KFMN and KFAD are the FMN and FAD fluorescent rate constants expressed in per micromolar [37]. The kinetic data obtained for one substrate at saturated concentrations of the second one were interpreted using the Michaelis-Menten kinetic model.

CaFADS [4] = target: T1, CaFADS (Corynebacterium ammoniagenes, UniProt Q59263); design: method as in PMID 22892871; details: FMNAT activity; 37 °C, 20 mM PIPES, 10 mM MgCl2, pH 7.0; cited from earlier work
T1 construct: made in house; host or cells: E. coli (pET28a-CaFADS plasmid)

CaFADS [5] = target: T1, CaFADS; details: RFK activity, cited from earlier work
[6] = ligand ATP, 10 mM Mg^2+, pH 7.0
[7] = ligand FAD, 10 mM Mg^2+, pH 7.0
[8] = ligand FMN, 10 mM Mg^2+, pH 7.0

B1: WT: wild-type FAD synthetase from Corynebacterium ammoniagenes (CaFADS), over-expressed in E. coli (protein)
chain: MDIWYGTAAVPKDLDNSAVTIGVFDGVHRGHQKLINATVEKAREVGAKAIMVTFDPHPVSVFLPRRAPLGITTLAERFALAESFGIDGVLVIDFTRELSGTSPEKYVEFLLEDTLHASHVVVGANFTFGENAAGTADSLRQICQSRLTVDVIDLLDDEGVRISSTTVREFLSEGDVARANWALGRHFYVTGPVVRGAGRGGKELGFPTANQYFHDTVALPADGVYAGWLTILPTEAPVSGNMEPEVAYAAAISVGTNPTFGDEQRSVESFVLDRDADLYGHDVKVEFVDHVRAMEKFDSVEQLLEVMAKDVQKTRTLLAQDVQAHKMAPETYFLQAES
ΔG FADS:ATP (CaFADS [1]; ligand ATP, 0 mM Mg^2+, pH 7.0): -7.2 kcal/mol | ΔH FADS:ATP (CaFADS [1]; ligand ATP, 0 mM Mg^2+, pH 7.0): -31 kcal/mol | −TΔS FADS:ATP (CaFADS [1]; ligand ATP, 0 mM Mg^2+, pH 7.0): 24 kcal/mol | ΔG FADS:ATP (CaFADS [1]; [6]): -6.2 kcal/mol | ΔH FADS:ATP (CaFADS [1]; [6]): -30 kcal/mol | −TΔS FADS:ATP (CaFADS [1]; [6]): 23 kcal/mol | ΔG FADS:FAD (CaFADS [1]; [7]): -8.4 kcal/mol | ΔH FADS:FAD (CaFADS [1]; [7]): -26 kcal/mol | −TΔS FADS:FAD (CaFADS [1]; [7]): 18 kcal/mol | ΔG FADS:FMN (CaFADS [1]; [8]): -7.0 kcal/mol | ΔH FADS:FMN (CaFADS [1]; [8]): -35 kcal/mol | −TΔS FADS:FMN (CaFADS [1]; [8]): 28 kcal/mol | Kd (CaFADS [1]; read-out: Kd FADS:ATP (average, Kd,av^ATP:Mg, for two ATP:Mg^2+ binding sites), ligand ATP, 10 mM Mg^2+): 30 µM | Kd (CaFADS [1]; read-out: Kd FADS:ATP, ligand ATP, 0 mM Mg^2+): 5.5 µM | Kd (CaFADS [1]; read-out: Kd FADS:FAD, ligand FAD, 10 mM Mg^2+): 0.7 µM | Kd (CaFADS [1]; read-out: Kd FADS:FMN, ligand FMN, 10 mM Mg^2+): 7.8 µM | Tm,app [2]: 42.5 °C | kcat (CaFADS [3]): 0.217 s⁻¹ | kcat (CaFADS [4]): 0.283 s⁻¹ | kcat (apparent) (CaFADS [5]; saturated ATP, varying RF, 37 °C, 0.8 mM MgCl2, pH 7.0): 5.02 s⁻¹ | kcat (apparent) (CaFADS [5]; varying ATP, RF concentration exhibiting ~80% maximal activity): 1.13 s⁻¹
